Reference: patent publication US6869778

T1: lys-plasminogen, P00747
T1 chain: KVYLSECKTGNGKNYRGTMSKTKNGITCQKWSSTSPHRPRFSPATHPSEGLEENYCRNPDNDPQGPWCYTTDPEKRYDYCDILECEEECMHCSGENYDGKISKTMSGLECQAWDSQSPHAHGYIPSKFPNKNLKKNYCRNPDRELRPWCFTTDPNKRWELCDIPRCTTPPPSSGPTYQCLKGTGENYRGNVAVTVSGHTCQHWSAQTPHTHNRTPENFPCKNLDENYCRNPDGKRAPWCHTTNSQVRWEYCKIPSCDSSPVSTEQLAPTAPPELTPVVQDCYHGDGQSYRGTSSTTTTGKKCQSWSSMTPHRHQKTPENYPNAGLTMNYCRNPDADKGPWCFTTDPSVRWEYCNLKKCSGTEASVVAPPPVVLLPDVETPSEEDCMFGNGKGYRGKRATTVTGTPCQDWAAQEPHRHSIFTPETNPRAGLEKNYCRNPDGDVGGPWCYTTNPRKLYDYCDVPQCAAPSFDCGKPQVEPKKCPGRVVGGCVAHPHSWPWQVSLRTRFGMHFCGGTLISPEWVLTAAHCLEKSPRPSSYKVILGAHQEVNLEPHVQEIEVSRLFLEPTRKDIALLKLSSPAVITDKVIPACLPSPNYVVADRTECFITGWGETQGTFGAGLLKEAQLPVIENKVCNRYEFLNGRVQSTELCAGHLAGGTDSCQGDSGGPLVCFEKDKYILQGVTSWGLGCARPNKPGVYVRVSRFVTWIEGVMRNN

B1: t-PA/R275E,K429Y, single-chain form (protein)
chain: SYQVICRDEKTQMIYQQHQSWLRPVLRSNRVEYCWCNSGRAQCHSVPVKSCSEPRCFNGGTCQQALYFSDFVCQCPEGFAGKCCEIDTRATCYEDQGISYRGTWSTAESGAECTNWNSSALAQKPYSGRRPDAIRLGLGNHNYCRNPDRDSKPWCYVFKAGKYSSEFCSTPACSEGNSDCYFGNGSAYRGTHSLTESGASCLPWNSMILIGKVYTAQNPSAQALGLGKHNYCRNPDGDAKPWCHVLKNRRLTWEYCDVPSCSTCGLRQYSQPQFEIKGGLFADIASHPWQAAIFAKHRRSPGERFLCGGILISSCWILSAAHCFQERFPPHHLTVILGRTYRVVPGEEEQKFEVEKYIVHKEFDDDTYDNDIALLQLKSDSSRCAQESSVVRTVCLPPADLQLPDWTECELSGYGKHEALSPFYSERLYEAHVRLYPSSRCTSQHLLNRTVTDNMLCAGDTRSGGPQANLHDACQGDSGGPLVCLNDGRMTLVGIISWGLGCGQKDVPGVYTKVTNYLDWIRDNMRP
B2: t-PA/K429Y, two-chain form (protein)
chain 1: SYQVICRDEKTQMIYQQHQSWLRPVLRSNRVEYCWCNSGRAQCHSVPVKSCSEPRCFNGGTCQQALYFSDFVCQCPEGFAGKCCEIDTRATCYEDQGISYRGTWSTAESGAECTNWNSSALAQKPYSGRRPDAIRLGLGNHNYCRNPDRDSKPWCYVFKAGKYSSEFCSTPACSEGNSDCYFGNGSAYRGTHSLTESGASCLPWNSMILIGKVYTAQNPSAQALGLGKHNYCRNPDGDAKPWCHVLKNRRLTWEYCDVPSCSTCGLRQYSQPQFR
chain 2: IKGGLFADIASHPWQAAIFAKHRRSPGERFLCGGILISSCWILSAAHCFQERFPPHHLTVILGRTYRVVPGEEEQKFEVEKYIVHKEFDDDTYDNDIALLQLKSDSSRCAQESSVVRTVCLPPADLQLPDWTECELSGYGKHEALSPFYSERLYEAHVRLYPSSRCTSQHLLNRTVTDNMLCAGDTRSGGPQANLHDACQGDSGGPLVCLNDGRMTLVGIISWGLGCGQKDVPGVYTKVTNYLDWIRDNMRP

Columns and labels:
[1] = molecular target: fibrinogen
[2] = molecular target: soluble fibrin monomers (DESAFIB)
[3] = molecular target: T1, lys-plasminogen, P00747
[4] = molecular target: stimulatory thirteen amino acid peptide P368

Protein	stimulation of plasminogen activation by co-factor (indirect chromogenic assay) [1]	Fold stimulation of kcat/Km by fibrin [2] [fold]	fibrin selectivity factor (specific activity in the presence of fibrin over that in the presence of fibrinogen) [2]	stimulation of plasminogen activation by co-factor (indirect chromogenic assay) [2]	Kcat of plasminogen activation in the absence of a cofactor [3] [s⁻¹]	Kcat of plasminogen activation in the presence of fibrin [3] [s⁻¹]	Kcat/Km of plasminogen activation in the absence of a cofactor [3] [M⁻¹ s⁻¹]	Kcat/Km of plasminogen activation in the presence of fibrin [3] [M⁻¹ s⁻¹]	Km of plasminogen activation in the absence of a cofactor [3] [µM]	Km of plasminogen activation in the presence of fibrin [3] [µM]	fold reduction of activity toward plasminogen without co-factor, against single chain t-PA/R275E [3]	percent of the activity of single chain t-PA/R275E toward plasminogen in the presence of fibrin [3]	stimulation of plasminogen activation by co-factor (indirect chromogenic assay) [4]	fold difference of activity toward plasminogen without co-factor, against two-chain t-PA [3]	percent of the activity of two-chain t-PA toward plasminogen in the presence of fibrin [3]
B1	virtually nonresponsive	26000	The fibrin selectivity factor for single chain t-PA/R275E,K429Y, however, is 146	dramatically stimulated by fibrin monomers	0.00046	0.1	78	2e+06	5.9	0.07	reduced by a factor of 17	approximately 40% of the activity of single chain t-PA/R275E	virtually nonresponsive		
B2	strongly stimulated	230	1.5 for two-chain t-PA/K429Y	strongly stimulated	0.18	0.08	13000	3e+06	14	0.03			strongly stimulated	differed by a factor of only 1.2	approximately 75% of the activity of two-chain t-PA
